From publication doi:10.1101/2022.06.04.494841
Several values for one entry are separate records, joined by “and”; a condition that tells them apart may be missing. Identical values can stand only once.

Target: MoFe-protein (molybdenum iron protein of the MoFe-nitrogenase) from Azotobacter vinelandii (Azotobacter vinelandii) (UniProt P07328)
Assay: cryo-EM structure

Sequence of UniProt P07328 (P07328 whole entry, chain 1 of 2): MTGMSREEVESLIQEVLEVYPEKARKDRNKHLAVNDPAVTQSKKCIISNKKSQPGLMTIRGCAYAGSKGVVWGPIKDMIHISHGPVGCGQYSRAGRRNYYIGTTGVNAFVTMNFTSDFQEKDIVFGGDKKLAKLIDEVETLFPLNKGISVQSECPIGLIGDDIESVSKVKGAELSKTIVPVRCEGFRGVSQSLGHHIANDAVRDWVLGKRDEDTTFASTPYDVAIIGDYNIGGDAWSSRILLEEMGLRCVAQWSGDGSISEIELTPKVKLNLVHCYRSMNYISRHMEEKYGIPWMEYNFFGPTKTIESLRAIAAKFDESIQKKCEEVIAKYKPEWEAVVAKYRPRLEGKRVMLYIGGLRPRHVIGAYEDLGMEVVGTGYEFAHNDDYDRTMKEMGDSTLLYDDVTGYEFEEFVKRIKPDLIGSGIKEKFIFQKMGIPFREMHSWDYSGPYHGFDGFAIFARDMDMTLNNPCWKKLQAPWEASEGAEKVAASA
Sequence of UniProt P07328 (P07329 whole entry, chain 2 of 2, further chain): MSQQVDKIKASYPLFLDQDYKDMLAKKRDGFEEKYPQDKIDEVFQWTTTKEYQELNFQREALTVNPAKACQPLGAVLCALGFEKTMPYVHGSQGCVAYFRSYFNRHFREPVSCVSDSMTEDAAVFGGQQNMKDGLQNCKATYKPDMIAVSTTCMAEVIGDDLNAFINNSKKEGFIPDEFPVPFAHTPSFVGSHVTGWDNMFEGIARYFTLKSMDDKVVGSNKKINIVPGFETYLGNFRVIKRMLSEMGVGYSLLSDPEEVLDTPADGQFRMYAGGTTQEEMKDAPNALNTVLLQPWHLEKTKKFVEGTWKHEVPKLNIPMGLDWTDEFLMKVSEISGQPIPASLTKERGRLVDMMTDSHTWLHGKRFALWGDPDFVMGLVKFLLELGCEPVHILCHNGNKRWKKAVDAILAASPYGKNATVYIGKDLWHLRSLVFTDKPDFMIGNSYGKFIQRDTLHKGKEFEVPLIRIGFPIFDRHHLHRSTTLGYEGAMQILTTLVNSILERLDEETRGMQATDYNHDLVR

stoichiometry N (Fe-protein per MoFe-protein): 2 and 1
Substance: Fe-protein (iron protein of the MoFe-nitrogenase) from Azotobacter vinelandii (enzyme)
